Measurements as given in publication PMC11721464.

Target: Zika virus prM/E heterodimer of the immature virion (Zika virus strain MR-766)
Assay: cryo-EM structure; immature ZIKV MR-766 virions purified from NH4Cl-treated Vero E6 cells, neutral pH (TNE buffer, pH 7.4); icosahedral symmetry enforced, 8.3 Å map; homology model of prM/E (template SPOV PDB 6ZQI) fitted and refined in real space

Q: Which stoichiometry N does the source give for “Zika virus prM/E heterodimer of the immature virion (complex)” here?
A: The stoichiometry N was 3.
